Test results taken from publication PMC4906154, “Mitochondrial disease-related mutations at the cytochrome b-iron–sulfur protein (ISP) interface: Molecular effects on the large-scale motion of ISP and superoxide generation studied in Rhodobacter capsulatus cytochrome bc1^” (Biochimica et Biophysica Acta, 2016).

Substrate: CCCCCCCCCCc1c(C)c(O)c(OC)c(OC)c1O
Experiment: steady-state cytochrome c reduction, spectroscopic, Michaelis-Menten fit
Type: biochemical, Rhodobacter capsulatus
Conditions: 20 μM bovine heart cytochrome c, 50 mM Tris pH 8.0, 0.01% DDM, 100 mM NaCl, DBH2 0.5-20 μM, Qo site, turnover given as Vmax

Protein	Km	kcat
cytochrome bc1 (R. capsulatus bc1 complex) (Rhodobacter capsulatus) (protein, petABC operon from plasmid pPET1, C-terminal Strep-tag on cytochrome b, expressed in R. capsulatus MT-RBC1 (host), DDM-solubilised from chromatophores, Strep-tag purified; homodimer of 3 catalytic subunits; with Cytochrome c1) chain 1: MSGIPHDHYEPKTGIEKWLHDRLPIVGLVYDTIMIPTPKNLNWWWIWGIVLAFTLVLQIVTGIVLAIDYTPHVDLAFASVEHIMRDVNGGWAMRYIHANGASLFFLAVYIHIFRGLYYGSYKAPREITWIVGMVIYLLMMGTAFMGYVLPWGQMSFWGATVITGLFGAIPGIGPSIQAWLLGGPAVDNATLNRFFSLHYLLPFVIAALVAIHIWAFHTTGNNNPTGVEVRRTSKADAEKDTLPFWPYFVIKDLFALALVLLGFFAVVAYMPNYLGHPDNYIQANPLSTPAHIVPEWYFLPFYAILRAFAADVWVVILVDGLTFGIVDAKFFGVIAMFGAIAVMALAPWLDTSKVRSGAYRPKFRMWFWFLVLDFVVLTWVGAMPTEYPYDWISLIASTYWFAYFLVILPLLGATEKPEPIPASIEEDFNSHYGNPAE chain 2: MSHAEDNAGTRRDFLYHATAATGVVVTGAAVWPLINQMNASADVKAMSSIFVDVSAVEVGTQLTVKWRGKPVFIRRRDEKDIELARSVPLGALRDTSAENANKPGAEATDENRSLAAFDGTNTGEWLVMLGVCTHLGCVPMGDKSGDFGGWFCPCHGSHYDSAGRIRKGPAPRNLDIPVAAFVDETTIKLG	2.3 ± 0.5 µM	146 ± 9 s⁻¹
cytochrome bc1 (R. capsulatus bc1 complex) (Rhodobacter capsulatus; P0CY47:G332D) (protein, petABC operon from plasmid pPET1, C-terminal Strep-tag on cytochrome b, expressed in R. capsulatus MT-RBC1 (host), DDM-solubilised from chromatophores, Strep-tag purified; homodimer of 3 catalytic subunits; with Cytochrome c1) chain 1: MSGIPHDHYEPKTGIEKWLHDRLPIVGLVYDTIMIPTPKNLNWWWIWGIVLAFTLVLQIVTGIVLAIDYTPHVDLAFASVEHIMRDVNGGWAMRYIHANGASLFFLAVYIHIFRGLYYGSYKAPREITWIVGMVIYLLMMGTAFMGYVLPWGQMSFWGATVITGLFGAIPGIGPSIQAWLLGGPAVDNATLNRFFSLHYLLPFVIAALVAIHIWAFHTTGNNNPTGVEVRRTSKADAEKDTLPFWPYFVIKDLFALALVLLGFFAVVAYMPNYLGHPDNYIQANPLSTPAHIVPEWYFLPFYAILRAFAADVWVVILVDGLTFGIVDAKFFDVIAMFGAIAVMALAPWLDTSKVRSGAYRPKFRMWFWFLVLDFVVLTWVGAMPTEYPYDWISLIASTYWFAYFLVILPLLGATEKPEPIPASIEEDFNSHYGNPAE chain 2: MSHAEDNAGTRRDFLYHATAATGVVVTGAAVWPLINQMNASADVKAMSSIFVDVSAVEVGTQLTVKWRGKPVFIRRRDEKDIELARSVPLGALRDTSAENANKPGAEATDENRSLAAFDGTNTGEWLVMLGVCTHLGCVPMGDKSGDFGGWFCPCHGSHYDSAGRIRKGPAPRNLDIPVAAFVDETTIKLG	1.1 ± 0.2 µM	45 ± 2 s⁻¹
